In assay [1] the target is T1, human GM-CSF (human, UniProt P04141 18-144). As to the kind of experiment: cell-based or functional assay.
For assay [2], the target named is T1, human GM-CSF. As to the kind of experiment: cell-based or functional assay. The source holds these as a separate data set.
For assay [3], the target named is T2, rat GM-CSF (rat, UniProt P48750 18-144).
T2 construct: Bought recombinant protein; also called rat-GM-CSF (Peprotech); rat recombinant GM-CSF
T2 sequence (looked up): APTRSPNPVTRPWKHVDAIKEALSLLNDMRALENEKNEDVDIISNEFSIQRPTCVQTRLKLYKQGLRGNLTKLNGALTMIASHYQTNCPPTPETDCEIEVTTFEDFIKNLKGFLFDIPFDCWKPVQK
As to the kind of experiment: SPR (Biacore 3000), Fab captured on anti-F(ab)2, cytokine as analyte. (In general: SPR reads the build-up and loss of mass on a sensor chip optically.)
Procedure: (§1) This was performed in a capture set-up by surface plasmon resonance (Biacore 3000, Uppsala, Sweden).
(§2) CM5 chips (Biacore, Sweden) were coated with 5000-6000 RU anti-F(ab)₂ (Dianova, Affinipure F(ab)₂ Fragment Goat Anti-Human IgG, F(ab)₂ Fragment specific); 80 μg/ml 10 mM acetate buffer, pH4 on all 4 flow cells, using standard EDC-NHS amine coupling chemistry. […] After capturing of the specific Fab, buffer was injected, to determine the dissociation of anti-Fab/Fab interaction. In a following cycle, the analyte growth factor was injected (20 μl, flow rate 20 μl/min) at a concentration range between 15 and 2000 nM for the determination of the specific signal. Afterwards the achieved buffer sensogram was manually subtracted from the specific one. After each cycle, the flow cells were regenerated with 100 mM HCl (5 μl).

Another assay concerns the target T3, mouse GM-CSF (mouse, UniProt P01587 18-141).
T3 construct: Bought recombinant protein
T3 sequence (looked up): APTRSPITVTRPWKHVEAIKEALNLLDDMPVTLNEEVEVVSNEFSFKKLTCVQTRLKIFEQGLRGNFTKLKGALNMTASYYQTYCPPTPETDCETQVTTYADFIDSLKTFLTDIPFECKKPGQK
The assay is described as above.

In another assay the target is T4, human IL-3 (human, UniProt P08700 20-152).
T4 construct: Bought recombinant protein
T4 sequence (looked up): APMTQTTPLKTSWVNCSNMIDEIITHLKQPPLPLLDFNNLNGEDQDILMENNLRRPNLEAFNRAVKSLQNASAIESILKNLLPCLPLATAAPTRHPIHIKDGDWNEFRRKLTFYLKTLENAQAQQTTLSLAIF
The description is as above.

The target of another assay is T5, human IL-4 (human, UniProt P05112 25-153).
T5 construct: Bought recombinant protein
T5 sequence (looked up): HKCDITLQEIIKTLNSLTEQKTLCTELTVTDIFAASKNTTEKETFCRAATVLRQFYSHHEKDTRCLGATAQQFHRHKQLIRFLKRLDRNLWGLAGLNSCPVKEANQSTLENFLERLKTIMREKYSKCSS
The assay is described as above.

The next assay concerns the target T6, human IL-5 (human, UniProt P05113 20-134).
T6 construct: Bought recombinant protein
T6 sequence (looked up): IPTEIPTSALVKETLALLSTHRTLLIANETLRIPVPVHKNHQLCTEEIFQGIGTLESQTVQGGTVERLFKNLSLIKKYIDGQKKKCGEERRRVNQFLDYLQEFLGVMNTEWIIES
The description is as above.

Another assay has as its target T7, human IL-13 (human, UniProt P35225 35-146).
T7 construct: Bought recombinant protein
The description is as above.

A further assay addresses T8, human M-CSF (human, UniProt P09603 33-190, limits assumed).
T8 construct: Bought recombinant protein
T8 sequence (looked up): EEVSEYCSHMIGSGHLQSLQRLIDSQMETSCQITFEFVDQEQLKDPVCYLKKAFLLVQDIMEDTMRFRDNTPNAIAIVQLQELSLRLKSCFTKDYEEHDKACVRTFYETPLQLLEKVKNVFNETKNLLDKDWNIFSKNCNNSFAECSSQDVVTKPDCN
Described as above.

Assay [4] has as its target T1, human GM-CSF. As to the kind of experiment: solution equilibrium titration (SET, ECL/BioVeris), Fab with human GM-CSF (Leucomax) in solution.
The target in assay [5] is T1, human GM-CSF. As to the kind of experiment: cell-based or functional assay. This is another data set of the same source.
Assay [6] deals with T1, human GM-CSF. As to the kind of experiment: SPR (Biacore), Fab over immobilized recombinant human GM-CSF (Peprotech), F1 chip; affinity estimated from off-rates.
Procedure: A respective amount of HSA was immobilized on the reference flow cell. […] Fab was applied in concentration series of 6.3-200 nM at a flow rate of 20 μl/min.
In assay [7] the target is T1, human GM-CSF. As to the kind of experiment: FACS receptor inhibition assay: inhibition of binding of 0.5 µg/ml biotinylated GM-CSF to GM-CSF receptor alpha on CHO-GMRa#11 cells.
Procedure: (§3) All stainings were performed in round bottom 96-well culture plates (Nalge Nunc) with 1-5×10⁵ cells per well. […] Cells were then washed once with 150 μl FACS buffer/well and taken up in 100 μl phycoerythrin-labeled streptavidin (BD Biosciences Pharmingen) which has been diluted 1:400 in FACS buffer. […] IC₅₀ values were determined from the dose response curves obtained using GraphPad Prism v3.03 software applying a non-linear regression curve fit.
(§4) IC₅₀ values were determined from the dose response curves obtained using GraphPad Prism v3.03 software applying a non-linear regression curve fit.
The target of assay [8] is T1, human GM-CSF. As to the kind of experiment: FACS receptor inhibition assay: antibody pre-incubated with 0.5 µg/ml biotinylated GM-CSF, binding to GM-CSF receptor alpha on CHO-GMRa#11 cells.
Procedure: as §3, §4
The target of assay [9] is T2, rat GM-CSF. As to the kind of experiment: solution equilibrium titration (SET), Fab with rat GM-CSF (Peprotech) as analyte in solution.
Assay [10] has as its target T2, rat GM-CSF. As to the kind of experiment: SPR (Biacore 3000), Fab captured on anti-F(ab)2, rat GM-CSF as analyte.
Procedure: as §1, §2
For assay [11], the target named is macaca mulatta (rhesus) GM-CSF (Macaca mulatta (rhesus)). Nature of the assay: cell-based or functional assay.
Assay [12] deals with T2, rat GM-CSF. As to the kind of experiment: solution equilibrium titration (SET), IgG1 with rat GM-CSF (Peprotech) as analyte in solution.

Some results are limits rather than exact numbers.

T1 sequence (P04141 18-144): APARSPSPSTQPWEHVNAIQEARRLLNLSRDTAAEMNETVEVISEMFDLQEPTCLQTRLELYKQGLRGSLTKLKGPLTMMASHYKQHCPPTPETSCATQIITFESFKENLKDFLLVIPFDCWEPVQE
T7 sequence (P35225 35-146 limits assumed): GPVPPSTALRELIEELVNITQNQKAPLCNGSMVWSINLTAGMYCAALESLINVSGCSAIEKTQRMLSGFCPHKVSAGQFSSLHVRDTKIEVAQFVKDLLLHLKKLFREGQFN
Procedure for human IL-13: as §1, §2
Procedure for human IL-3: as §1, §2
Procedure for human IL-4: as §1, §2
Procedure for human IL-5: as §1, §2
Procedure for human M-CSF: as §1, §2
Procedure for mouse GM-CSF: as §1, §2

B1: MOR03682 Fab (Fab, V domains shown)
VH: QVQLVQSGAEVKKPGSSVKVSCKASGGTFNSFLISWVRQAPGQGLEWMGGIIPIFGTANYAQKFQGRVTITADESTSTAYMELSSLRSEDTAVYYCARKFISDSWGQGTLVTVSS
VL: DIQMTQSPSSLSASVGDRVTITCRASQTINNYLNWYQQKPGKAPKLLIYTASNLQSGVPSRFSGSGSGTDFTLTISSLQPEDFAVYYCQQYSGSPMTFGQGTKVEIKR
notes: Parental HuCAL GOLD Fab with C-terminal FLAG and 6xHis tags
Regarding B1, the “inhibition of TF1 cell proliferation at 2 µM Fab, human GM-CSF (Leucomax) 0.25 ng/ml” value (“inhibition of TF1 cell proliferation” for short) with human GM-CSF [1] is over 50%. In addition, the “IC50 (pM) in TF-1 proliferation assay, human GM-CSF” value in the assay with human GM-CSF [2] is over 200000 pM. For the same molecule, the binding result in the assay with rat GM-CSF [3], with mouse GM-CSF, with human IL-3, with human IL-4, with human IL-5 and in the assay with human IL-13 was “no binding (tested: analyte 15 to 2000 nM)” throughout. In the assay with human M-CSF, the binding result is on record as “no binding (tested: analyte 15 to 2000 nM)”. Besides, the affinity with human GM-CSF [4], expressed as Kd, was 11.4 nM.

B2: MOR03684 Fab (Fab, V domains shown)
VH: QVQLVESGGGLVQPGGSLRLSCAASGFTFSSHWMSWVRQAPGKGLEWVSNGIFSDGSATYYADSVKGRFTISRDNSKNTLYLQMNSLRAEDTAVYYCARFQGYGGGFDYWGQGTLVTVSS
VL: DIELTQPPSVSVAPGQTARISCSGDNLPGKYVHWYQQKPGQAPVLVIYYDSNRPSGIPERFSGSNSGNTATLTISGTQAEDEADYYCQSRTQTTIVFGGGTKLTVLG
notes: carries two C-terminal tags (FLAG and 6xHis); also called antibody no
As for B2, the “inhibition of TF1 cell proliferation” value with human GM-CSF [1] is over 50%. The “IC50 (pM) in TF-1 proliferation assay, human GM-CSF 0.25 ng/ml” value with human GM-CSF [5] was over 200000 pM. For the same molecule, the binding result in the assay with rat GM-CSF [3], in the assay with mouse GM-CSF, in the assay with human IL-3, in the assay with human IL-4, in the assay with human IL-5 and with human IL-13 was “no binding (tested: analyte 15 to 2000 nM)” throughout. Besides, the binding result with human M-CSF is given as “no binding (tested: analyte 15 to 2000 nM)”. Moreover, the figures for the Kd with human GM-CSF [4] and with human GM-CSF [6] were 16 nM and 6.42 nM, respectively. The % inhibition (commonly the relative decrease from the control value, in per cent) at 5 µg/ml antibody with human GM-CSF [7] is about 25%. The IC50 (usually the concentration at which inhibition is half-maximal) with human GM-CSF [8] was over 400 nM.

B3: MOR04357 Fab (Fab, V domains shown)
VH: QVQLVESGGGLVQPGGSLRLSCAASGFTFSSYWMNWVRQAPGKGLEWVSGIENKYAGGATYYAASVKGRFTISRDNSKNTLYLQMNSLRAEDTAVYYCARGFGTDFWGQGTLVTVSS
VL: DIELTQPPSVSVAPGQTARISCSGDSIGKKYAYWYQQKPGQAPVLVIYKKRPSGIPERFSGSNSGNTATLTISGTQAEDEADYYCSAWGDKGMVFGGGTKLTVLG
notes: X-cloned Fab (VH of MOR04252 x VL of MOR04302) with FLAG and 6xHis tags; also called Fab MOR04357
With B3, the Kd (usually a measure of binding affinity in units of concentration) in the assay with rat GM-CSF [9] is 1 nM.

B4: MOR03929 Fab (Fab, V domains shown)
VH: QVQLVESGGGLVQPGGSLRLSCAASGFTFSSYWMNWVRQAPGKGLEWVSGISYSGSETYYADSVKGRFTISRDNSKNTLYLQMNSLRAEDTAVYYCARGFGTDFWGQGTLVTVSS
VL: DIELTQPPSVSVAPGQTARISCSGDSIGKKYAYWYQQKPGQAPVLVIYKKRPSGIPERFSGSNSGNTATLTISGTQAEDEADYYCSSWDSTGLVFGGGTKLTVLG
notes: as for B1
As to B4, the “inhibition of TF1 cell proliferation” value with human GM-CSF [1] was over 50%. In the assay with human GM-CSF [5], the “IC50 (pM) in TF-1 proliferation assay, human GM-CSF 0.25 ng/ml” value was over 200000 pM. The binding result with rat GM-CSF [10] is reported as “binds”. The equilibrium dissociation constant (Kd) with human GM-CSF [4] is 2 nM; with human GM-CSF [6], 4.26 nM. Also, in the assay with human GM-CSF [7], the “% inhibition at 5 µg/ml antibody” value is about 60%. This molecule also had a 50% inhibitory concentration (IC50) with human GM-CSF [8] of 35 nM.

B5: MOR04357 IgG1 (antibody, V domains shown)
VH: QVQLVESGGGLVQPGGSLRLSCAASGFTFSSYWMNWVRQAPGKGLEWVSGIENKYAGGATYYAASVKGRFTISRDNSKNTLYLQMNSLRAEDTAVYYCARGFGTDFWGQGTLVTVSS
VL: DIELTQPPSVSVAPGQTARISCSGDSIGKKYAYWYQQKPGQAPVLVIYKKRPSGIPERFSGSNSGNTATLTISGTQAEDEADYYCSAWGDKGMVFGGGTKLTVLG
notes: expressed in HKB11 cells; also called IgG1 MOR04357
For B5, the “IC50 (pM) in TF-1 proliferation assay, macaca GM-CSF (HEK293)” value in assay [11] amounted to 15 pM. Moreover, binding with rat GM-CSF [12] was put at a Kd of 0.13 nM.

Source of the values: US20090053213A1 (MorphoSys, published 2009).
